B1: KCNG1 (parent)
chain: LFVTVTAVNLSVSTLPSLREEEEQ

Variants of: B1
Test: protein stability index of a GFP-peptide fusion (GPS, HEK-293T) (PSI 1-6); higher = more stable
Conditions: c terminus: a fixed tail appended
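Note: lentivirally expressed fusions sorted by FACS into six bins by GFP to DsRed ratio, PSI derived from sequencing read proportions per bin multiplied by bin number.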

Compared with LFVTVTAVNLSVSTLPSWREEEEQ [L18W], LFVTVTAVNLSVSTLPSYREEEEQ [L18Y] is lower in protein stability index: 3.02 for the first, 1.35 for the second.

First: LFVTVTAVNLSVSTLPSVREEEEQ [L18V]
Second: LFVTVTAVNLSVSTLPSLHEEEEQ [R19H]
The protein stability index of the first is higher: 2.17 for the first, 1.41 for the second.

Compared with LFVTVTAVNLSVSTLPSLQEEEEQ [R19Q], LFVTVTAVNLSVSTLPSLNEEEEQ [R19N] is higher in protein stability index: 1.2 for the first, 1.96 for the second.

Compared with LFVTVTAVNLSVSTLPSLEEEEEQ [R19E], LFVTVTAVNLSVSTLPSLVEEEEQ [R19V] is higher in protein stability index: 1.43 for the first, 1.99 for the second.

Going from LFVTVTAVNLSVSTLPSLKEEEEQ [R19K] to LFVTVTAVNLSVSTLPSLCEEEEQ [R19C], the protein stability index falls from 3.36 to 2.09.

Compared with LFVTVTAVNLSVSTLPSLFEEEEQ [R19F], LFVTVTAVNLSVSTLPSLLEEEEQ [R19L] is lower in protein stability index: 3.41 for the first, 2.85 for the second.

Compared with LFVTVTAVNLSVSTLPSLDEEEEQ [R19D], LFVTVTAVNLSVSTLPSLSEEEEQ [R19S] is higher in protein stability index: 2.32 for the first, 2.41 for the second.

Going from LFVTVTAVNLSVSTLPSLRFEEEQ [E20F] to LFVTVTAVNLSVSTLPSLRPEEEQ [E20P], the protein stability index falls from 3.08 to 1.7.

Going from LFVTVTAVNLSVSTLPSLRDEEEQ [E20D] to LFVTVTAVNLSVSTLPSLRTEEEQ [E20T], the protein stability index rises from 1.67 to 3.53.

Compared with LFVTVTAVNLSVSTLPSLRCEEEQ [E20C], LFVTVTAVNLSVSTLPSLRSEEEQ [E20S] is lower in protein stability index: 3.25 for the first, 3.18 for the second.

First: LFVTVTAVNLSVSTLPSLRKEEEQ [E20K]
Second: LFVTVTAVNLSVSTLPSLREEEDQ [E23D]
The protein stability index of the first is lower: 1.62 for the first, 1.71 for the second.

Compared with LFVTVTAVNLSVSTLPSLREEELQ [E23L], LFVTVTAVNLSVSTLPSLREEECQ [E23C] is lower in protein stability index: 3.24 for the first, 2.7 for the second.

Compared with LFVTVTAVNLSVSTLPSLREEEYQ [E23Y], LFVTVTAVNLSVSTLPSLREEETQ [E23T] is higher in protein stability index: 2.93 for the first, 4.29 for the second.

First: LFVTVTAVNLSVSTLPSLREEEKQ [E23K]
Second: LFVTVTAVNLSVSTLPSLREEIEQ [E22I]
The protein stability index of the first is lower: 2.12 for the first, 2.19 for the second.

Compared with LFVTVTAVNLSVSTLPSLREEMEQ [E22M], LFVTVTAVNLSVSTLPSLREEKEQ [E22K] is lower in protein stability index: 3.4 for the first, 3.13 for the second.

Going from LFVTVTAVNLSVSTLPSLREEHEQ [E22H] to LFVTVTAVNLSVSTLPSLREEPEQ [E22P], the protein stability index rises from 1.61 to 2.31.

Going from LFVTVTAVNLSVSTLPSLREESEQ [E22S] to LFVTVTAVNLSVSTLPSLREELEQ [E22L], the protein stability index rises from 1.89 to 3.04.

Going from LFVTVTAVNLSVSTLPSLREETEQ [E22T] to LFVTVTAVNLSVSTLPSLREEQEQ [E22Q], the protein stability index rises from 2.14 to 3.16.

Compared with LFVTVTAVNLSVSTLPSLREHEEQ [E21H], LFVTVTAVNLSVSTLPSLREVEEQ [E21V] is lower in protein stability index: 2.28 for the first, 1.63 for the second.

First: LFVTVTAVNLSVSTLPSLREPEEQ [E21P]
Second: LFVTVTAVNLSVSTLPSLREKEEQ [E21K]
The protein stability index of the first is lower: 2.06 for the first, 2.25 for the second.

Compared with LFVTVTAVNLSVSTLPSLRENEEQ [E21N], LFVTVTAVNLSVSTLPSLREYEEQ [E21Y] is lower in protein stability index: 3.49 for the first, 3.39 for the second.

Going from LFVTVTAVNLSVSTLPSLREREEQ [E21R] to LFVTVTAVNLSVSTLPSLREGEEQ [E21G], the protein stability index falls from 2.43 to 1.01.

Going from LFVTVTAVNLSVSTLPSLREEEEE [Q24E] to LFVTVTAVNLSVSTLPSLREEEEY [Q24Y], the protein stability index rises from 1.37 to 2.27.

Going from LFVTVTAVNLSVSTLPSLREEEEL [Q24L] to LFVTVTAVNLSVSTLPSLREEEED [Q24D], the protein stability index rises from 1.02 to 2.28.

Going from LFVTVTAVNLSVSTLPSLREEEEK [Q24K] to LFVTVTAVNLSVSTLPSLREEEES [Q24S], the protein stability index rises from 1.74 to 2.44.

Compared with LFVTVTAVNLSVSTLPSLREEEEM [Q24M], LFVTVTAVNLSVSTLPSLREEEEN [Q24N] is lower in protein stability index: 2.66 for the first, 2.31 for the second.

From the supplement of paper PMC10567573
